{"source": "paper PMC2843815", "about": "(Protein expression and purification, 2010)", "proteins": {"B1": {"name": "Bor1p (natural protein, S. cerevisiae)", "chain": "MSNESTRVTVSRGCTASDECAQALERTNDELDRESSVSESRSDEESHEKLSRRRFPTLGIGIWLDLKDRIPYYKSDWVDAFNYRVIPSIVDTYFNNLLPAIAFAQDMFDRTDNSYGVNEVLLSSAMAGIVFGVLGGQPLCIVGVTGPISIFNYTVYEIIKPLNTSYFGFMFWICMWSMIFHLVLAFTNAVCLLQYVTTFPCDIFGLFINVVYIQKGIQILTRQFSAKSGEKSVQDGFASVVVALVMTAFGLFFKLFHYYPLFSHRIRTFISDYSTALSVLFWSSFTHFGGYLHDVKFKKLPITKAFFPTSKVNRPQNTWLAYEPIPVKDVFIALPFGIFLTILFYFDHNVSSLMAQRHQYKLKKPSSFHYDFALLGLTTCISGVLGIPAPNGLIPQAPLHTETLLVRDSNQKVISCVEQRFTNTFQGLMILGTMTRPLLVCLGEIPQAVLSGLFFIMGINGLMTNSIIQRLVFLFSDPNRRDNTSPLMKVSKKSMLIFLSFSLTGFAGEFAITNTIAAIGFPLVLLLSVLVSFSFAYIFPTEELKILDTNVAQKFTIKNLLLENIRDAKFCDKHEDSGLEVLFQ"}}, "biological_target": "the molecule itself", "test": "SEC-MALS", "data": [{"protein": "B1", "values": [{"measurement": "stoichiometry N", "result": 2}]}]}
